Earlier results on one substance are cited in article PMC8892085.

The series deals with TLR4 (Homo sapiens) (UniProt O00206).
Sequence of TLR4 (Homo sapiens) (O00206 24-839): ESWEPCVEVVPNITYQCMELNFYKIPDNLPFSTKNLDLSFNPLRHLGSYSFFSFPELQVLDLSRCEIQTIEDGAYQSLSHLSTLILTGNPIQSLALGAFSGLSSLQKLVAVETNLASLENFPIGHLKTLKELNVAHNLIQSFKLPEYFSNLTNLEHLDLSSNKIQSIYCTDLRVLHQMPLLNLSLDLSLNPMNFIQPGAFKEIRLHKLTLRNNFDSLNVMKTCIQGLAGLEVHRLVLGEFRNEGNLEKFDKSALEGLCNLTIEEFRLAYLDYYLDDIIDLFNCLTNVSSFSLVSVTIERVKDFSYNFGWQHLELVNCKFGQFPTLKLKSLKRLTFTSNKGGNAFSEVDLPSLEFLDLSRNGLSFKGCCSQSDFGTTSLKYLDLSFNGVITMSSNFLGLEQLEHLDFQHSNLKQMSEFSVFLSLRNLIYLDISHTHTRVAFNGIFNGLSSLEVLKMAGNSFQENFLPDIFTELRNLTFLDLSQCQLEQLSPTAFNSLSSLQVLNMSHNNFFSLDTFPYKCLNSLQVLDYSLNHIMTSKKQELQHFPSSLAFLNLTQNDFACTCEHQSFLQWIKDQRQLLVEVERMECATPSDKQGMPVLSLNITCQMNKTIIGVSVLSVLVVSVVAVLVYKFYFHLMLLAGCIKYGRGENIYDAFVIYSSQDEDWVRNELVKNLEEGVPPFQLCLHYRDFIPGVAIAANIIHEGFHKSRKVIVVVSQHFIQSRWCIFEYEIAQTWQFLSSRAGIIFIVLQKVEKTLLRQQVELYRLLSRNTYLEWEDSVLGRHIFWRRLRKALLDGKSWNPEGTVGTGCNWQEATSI

Sequence of HMGB1 (P09429 whole entry): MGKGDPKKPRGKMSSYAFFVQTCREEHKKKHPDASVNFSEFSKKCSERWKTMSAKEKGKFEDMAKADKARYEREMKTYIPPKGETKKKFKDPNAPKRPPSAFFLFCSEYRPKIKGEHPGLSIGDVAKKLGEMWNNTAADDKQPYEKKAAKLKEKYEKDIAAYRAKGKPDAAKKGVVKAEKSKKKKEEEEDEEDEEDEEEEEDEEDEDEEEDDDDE

As to HMGB1 (from UniProt P09429), the dissociation constant Kd was 600 nM.
